Experimental data published in the DeepSol protein solubility set.

Assay: soluble on expression in E. coli; label from the status in PepcDB or PDB records

Soluble on expression in E. coli, soluble:
MSKAKIGIVTVSDRASAGIYEDISGKAIIDTLNDYLTSEWEPIYQVIPDEQDVIETTLIKMADEQDCCLIVTTGGTGPAKRDVTPEATEAVCDRMMPGFGELMRAESLKFVPTAILSRQTAGLRGDSLIVNLPGKPKSIRECLDAVFPAIPYCIDLMEGPYLECNEAVIKPFRPKAK
MDIRKFFGVIPSGKKLVSETVKKNEKTKSDEETLKAKKGIKEIKVNSSRKEDDFKQKQPSKKKRIIYDSDSESEETLQVKNAKKPPEKLPVSSKPGKISRQDPVTYISETDEEDDFMCKKAASKSKENGRSTNSHLGTSNMKKNEENTKTKNKPLSPIKLTPTSVLDYFGTGSVQRSNKKMVASKRKELSQNTDESGLNDEAIAKQLQLDEDAELERQLHEDEEFARTLAMLDEEPKTKKARKDTEAGETFSSVQANLSKAEKHKYPHKVKTAQVSDERKSYSPRKQSKYESSKESQQHSKSSADKIGEVSSPKASSKLAIMKRKEESSYKEIEPVASKRKENAIKLKGETKTPKKTKSSPAKKESVSPEDSEKKRTNYQAYRSYLNREGPKALGSKEIPKGAENCLEGLIFVITGVLESIERDEAKSLIERYGGKVTGNVSKKTNYLVMGRDSGQSKSDKAAALGTKIIDEDGLLNLIRTMPGKKSKYEIAVETEMKKESKLERTPQKNVQGKRKISPSKKESESKKSRPTSKRDSLAKTIKKETDVFWKSLDFKEQVAEETSGDSKARNLADDSSENKVENLLWVDKYKPTSLKTIIGQQGDQSCANKLLRWLRNWQKSSSEDKKHAKFGKFSGKDDGSSFKAALLSGPPGVGKTTTASLVCQELGYSYVELNASDTRSKSSLKAIVAESLNNTSIKGFYSNGAASSVSTKHALIMDEVDGMAGNEDRGGIQELIGLIKHTKIPIICMCNDRNHPKIRSLVHYCFDLRFQRPRVEQIKGAMMSIAFKEGLKIPPPAMNEIILGANQDIRQVLHNLSMWCARSKALTYDQAKADSHRAKKDIKMGPFDVARKVFAAGEETAHMSLVDKSDLFFHDYSIAPLFVQENYIHVKPVAAGGDMKKHLMLLSRAADSICDGDLVDSQIRSKQNWSLLPAQAIYASVLPGELMRGYMTQFPTFPSWLGKHSSTGKHDRIVQDLALHMSLRTYSSKRTVNMDYLSLLRDALVQPLTSQGVDGVQDVVALMDTYYLMKEDFENIMEISSWGGKPSPFSKLDPKVKAAFTRAYNKEAHLTPYSLQAIKASRHSTSPSLDSEYNEELNEDDSQSDEKDQDAIETDAMIKKKTKSSKPSKPEKDKEPRKGKGKSSKK
MDFAVMKQVKNTGLLQSEELCQYILRTSVYPREAGFLKELREANESHPDSYMSTSPLAGQLMSFVLKLVNAKKTIEVGVFTGYSLLLTALSIPDDGKITAIDFDREAYEIGLPFIRKAGVEHKINFIESDAMLALDNLLQGQESEGSYDFGFVDADKPNYIKYHERLMKLVKVGGIVAYDNTLWGGTVAQPESEVPDFMKENREAVIELNKLLAADPRIEIVHLPLGDGITFCRRLY
MSLKILFAVSECTPFVKSGGLADVAGALPKALARLGNEVAVMLPKYSQIPEPWKKRMKKQAECTVAVGWRQQYCGIEHMAENDVNYYFIDNEYYFNRDSLYGHYDDGERFAFFSRAVLEAAKVVNVQADIVHTHDWHTAMVNYLLKEEYRKHPFYERMKSVLTIHNLQFQGIFPPDVTHDLLGLEMDHFHYERLECNGFVNFMKAGIIAADHVTTVSPTYRNEIMTPYYGEQLEQVLQYREDDVTGILNGIDDTFYQPKSDPYIEAQYDSGDLACKLENKTKLQQRMGLPEKNDIPLISMVTRLTKQKGLDLVRRIMHELLEEQDIQLVVLGTGEREFEDYFRYAEFAFHEKCRAYIGFDEPLAHQIYAGSDMFLMPSKFEPCGLGQLIALQYGAIPIVRETGGLYDTVRAYQEEEGTGNGFTFSAFNAHDLKFTIERALSFYCQQDVWKSIVKTAMNADYSWGKSAKEYQRIFEQVTRSGRDVLEEGHHHHHH
MHHHHHHSSGVDLGTENLYFQSNAMTIMLTPMQTEEFRSYLTYTTKHYAEEKVKAGTWLPEDAQLLSKQVFTDLLPRGLETPHHHLWSLKLNEKDIVGWLWIHAEPEHPQQEAFIYDFGLYEPYRGKGYAKQALAALDQAARSMGIRKLSLHVFAHNQTARKLYEQTGFQETDVVMSKKL
MMKTLLPFFGVVRVSGEDRQTFLHGQLSNDINNLQTGQACYATYNTPKGRVIANMIVVNRGGDLLLIMAQDLLEATVKRLRMFVLRAKAVFEILEDYAVGAELEASAEPLAAQEPNLAFAAQQDSDGICSIALPHGGILRIAPKNTLPPYDAAAENAWRLHEIRSGYPWICAATKETAVAQMLNQHIIGGVHFKKGCYPGQEIIARAQYRGQVKRGLAVLSGNSAAEAGSVLAADGEEAGIVLDSVQDSENFTALAVIKFSAAQKELTVPNGGIFKAVHLFFKTENAELEHHHHHH
MSLTTRVIALDLDGTLLTPKKTLLPSSIEALARAREAGYQLIIVTGRHHVAIHPFYQALALDTPAICCNGTYLYDYHAKTVLEADPMPVIKALQLIEMLNEHHIHGLMYVDDAMVYEHPTGHVIRTSNWAQTLPPEQRPTFTQVASLAETAQQVNAVWKFALTHDDLPQLQHFGKHVEHELGLECEWSWHDQVDIARGGNSKGKRLTKWVEAQGWSMENVVAFGDNFNDISMLEAAGTGVAMGNADDAVKARANIVIGDNTTDSIAQFIYSHLIEGHHHHHH
MKKQNPWIYLNEEEKNQILNFSESYKKFISKFKTEREVTAYALDKAKKLGFINAEEKKNLMPGDKIFYTCREKSVAFAIIGKNPIEDGMNFIVSHTDSPRLDAKPSPISEENELTFIKTNYYGGIKKYQWLSTPLSIRGVVFLKNGEKVEINIGDNENDPVFVIPDILPHLDRKIQRNKKSDEIVEGENLKILIGSLPIETKEKNKVKLATLQLIKEKYKIEEEDFVSSEIEIVPAGTAKDVGFDKALIGAYGQDDKICVFTSLESIFDLEETPNKTAICFLVDKEEIGSTGSTGLDSRYLEYFVSDMIFKIKKSEYNNLHVQKALWNSKSISADVCAAINPLFSSVHDEQNAPQLGYGIPIMKYTGHGGKSMASDADAELVSYIRQLLNKNNIAWQVATLGKVEEGGGGTVAKFLAGYGIRTIDMGPAVISMHSPMEITSKFDLYNAYLAYKAFYRE
MSLQFFDRKETMKFPSDFIEKYKDLLGAEAEEFFTSFDQEAVSAYRINPLKKQQKDYPDPIPGTPWGYYGKISGKSSDHATGLVYSQEPAAQMVAQVAAPSKGSRVLDLAAAPGGKSTHLLSYVDNTGLLVSNEIDFTRSKVLVENLERFGAKNVVVNHTSADKLAEVFKNYFDMIVFDGPCSGEGMFRKDPDAIQYWHKDYPSELAQLQKDILADGLKMLAPGGQLVYSTCTWSPEENEGVVAWILENYPDLELVAIPKLSGMSDGIDFPETARMYPHHFKGEGQFVAKFQDKRMPEQSCIKEGKTNLNKEQKQLWDDFVKKHLKLPLDGLLQVFGDNLYLLPRGLPDLSKVKIARNGLHLGIFKKKRFEPSFALGIALTSDEVVSSIELTQEQFAQYASGNVVTLDQTLENGWYQLLVDGNGFGFAKVIGNTLKNYYPKGLRFHEGHHHHHH
MSFDAKSLQQVREQVAARLRLDAGRPWLMVHAGSGGSANNLSIEQYARLIIKLNQACPELQCILTAGPGEERIAEQLAAELLAHGGNGWIYRSDEGLPKFCQVMANAALFVAGSTGPLHIAAALDVPTIGFFPAHRSATPLRWRPLNSEGRHLAFSPPEDSDHPEDMSQLDPKTMAAAIARWAPPFWRTEHLEHHHHHH

Soluble on expression in E. coli, not soluble:
MNLEKINELTAQDMAGVNATILEQLNSDVQLINQLGYYIISGGGKRIRPMIAVLAARAVGYQGNAHVTIAALIEFIHTATLLHDDVVDESDMRRGKATANAAFGNAASVLVGDFIYTRAFQMMTSLGSLKVLEVMSEAVNVIAEGEVLQLMNVNDPDITEENYMRVIYSKTARLFEAAAQCSGILAGCTPEQEKGLQDYGRYLGTAFQLIDDLLDYSADGEHLGKNVGDDLNEGKPTLPLLHAMRHGTPEQSAMIRTAIEQGNGRHLLEPVLEAMTTCGSLEWTRQRAEEEADKAISALQILPDTPWREALIGLAHIAVQRDR
VRQLLGLEGPIKRVECFDISHTMGEATVASCVVFDAVGPVRSQYRRYNITGITPGDDYAAMRQAIERRFRRAVEEDKQGERPDVLFIDGGAGQLAQAKMALNAVGVESVLLVGVSKGEERRAGHETLIMLDGQELHPGAASPALQFIQQVRDEAHRFAI
MGSDKIHHHHHHMRREEMWKLINATIEPIDTETSSSHILSEQDVNESTSGVIFIHTVGVMPVTVNDLIEEGRCARTDLSYADVILASRPVEEERTPVVYLNPDMNDASFYLLENAREIVPADLAKDVLLDRIVRYKRVQRVVDAVIVTDDPHLRRLLERELTKNFETLSLYERAEVFLEQHVATRPYLLVFSSALPRADGLELLLRAKQETIVPFHAIMISMYNRERDHVLAIERGVDGIMTLPLKVEEFRAWVSRLEGVHG
MGENVLICLCGSVNSINISHYIIELKSKFDEVNVIASTNGRKFINGEILKQFCDNYYDEFEDPFLNHVDIANKHDKIIILPATSNTINKIANGICDNLLLTICHTAFEKLSIFPNMNLRMWENPVTQNNIRLLKDYGVSIYPANISESYELASKTFKKNVVAPEPYKVLEFI
MNYRDLTLRERQVLGIIIQSYVVSAMPVGSRTIARNYNLGLSDATIRNVMADLEADGFISQPHTSAGRVPTDKGYRYYVDLIMNVSRIDEEEKRMIDDRFSNRNSELKGTSAEVLGTAARVLGSISRQLAVVLPPRLSNAVFERLDIVQLASSRIMVVIAIQSLFVKTIVMELNAEISRQKIDAVVDVLNERLPGLTLEEIRSTIAQRLSDFKGSEELMNSIVSSADTLFDESSILEQLYVSGTENIVDQPEFKQPEKVRDIITMIEDKFGMARLVDNAVPSALRQVSECEVAISIGTENRTGKAADLTIVSSPYFAGKMIGRVGVMGPKRMNYEHAVRVVNYMAGCLSEALSGNN
MALVVEDIVKNFGEGLSETKVLKGINFEVEQGEFVILNGASGSGKTTLLTILGGLLSQTSGTVLYNDAPLFDKQHRPSDLRLEDIGFIFQSSHLVPYLKVIEQLTLVGQEAGMTKQQSSTRAIQLLKNIGLEDRLNVYPHQLSGGEKQRVAIMRAFMNNPKIILADEPTASLDADRATKVVEMIRQQIKEQQMIGIMITHDRRLFEYADRVIELEDGKITD
MENPINELAAAVHDGLGLTYPPIIDMGPQLTREQLLASMSATMRRHKGGPVWLFAYGSLIWRPECTAVESQRGRVHGYHRGLYLWSHEHRGTPEVPGLVFGLDRGGSCTGFAYRLPDDCLEKSLLALWEREMPYPSYRPHWLNCRLEDGRKVQALGFVLERHLPSYAGNLPDSVLSQVLASASGRYGTTRDYVEQTAKALRSHAMPDLNLEARLKRCKSETAAAALEHHHHHH
MEKVMIELEEQVNQLINQILLKAENQYELLIGQCRSKVKLTNTQEHILMLLSEGQKTNSELAKALNVSQAAVTKAVKTLVKEGMLEGKKDKDDGRVTYFVLTQEAQPIAQEHKEHHQETLGVYRSVLDQFDHQERQVIGRFLIKLAEKIEE
MIYLRKLKKEDLMSLWEMAYSQLNPVWKQYDAPYYDDYQYFSNFKEFELQKSESILSNSNRLGIFVDDKLVGTVSRYWVCKETRWMELGIGIYDKKFWNTGIGKVAMLQWIDRTFQDYLELEHLGLTTWSGNIGMMKLAEKLRMKKEAHIPKVRYYQGKYFDSIKYGILREDWEKINDGYYQINGNS
MGSDKIHHHHHHMEEARIKALISLLDDEDVEVISQVEKELLAQGGSMIPFLEKEWEENFNPIVQKRIEDLVHLLQFVLLEDRLSQWKNKGGTDLMEGLWLICTYQYPDLEFNTIKSAMEQIYYEVWLDMKPDMLPLEQVKLVMNNVLFNKLKFSANTKNFHSPANSMISQVLESKKGNPISLCCIYMMVAQKLKLPVYGVNLPTLFILTYKSDDTQFYISPFHKGLIFTKEDIDNYLLQLNLAPIDLYYQPCNNIDIVARVLRNLIVSFEKLSEMERVDDVKKMLHFLTGEKY
